{
  "source": "patent US10793631B2",
  "about": "“Human PAC1 antibodies” (AMGEN INC., priority 2013, dated 2020)",
  "assay_type_in_all_cases": "cell-based",
  "key": {"[1]": {"molecular_target": "T1, PAC1 (Homo sapiens, UniProt P41586)", "T1 sequence (P41586 21-468)": "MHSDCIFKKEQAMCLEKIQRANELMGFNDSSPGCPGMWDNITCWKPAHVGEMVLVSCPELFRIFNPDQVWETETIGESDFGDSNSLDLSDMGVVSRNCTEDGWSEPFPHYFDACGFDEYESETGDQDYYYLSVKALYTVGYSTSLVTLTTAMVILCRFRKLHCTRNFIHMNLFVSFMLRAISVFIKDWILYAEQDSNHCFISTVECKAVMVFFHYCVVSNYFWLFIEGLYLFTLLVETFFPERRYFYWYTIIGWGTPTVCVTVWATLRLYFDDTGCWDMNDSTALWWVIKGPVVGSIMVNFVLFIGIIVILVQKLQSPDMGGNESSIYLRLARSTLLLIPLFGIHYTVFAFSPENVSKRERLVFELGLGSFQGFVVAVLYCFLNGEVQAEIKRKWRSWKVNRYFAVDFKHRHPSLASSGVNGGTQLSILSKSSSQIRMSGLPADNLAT", "test": "Activity and selectivity of PAC1 agonists on PAC1"}, "[2]": {"molecular_target": "T2, VPAC1 (Homo sapiens, UniProt P32241)", "T2 sequence (P32241 31-457)": "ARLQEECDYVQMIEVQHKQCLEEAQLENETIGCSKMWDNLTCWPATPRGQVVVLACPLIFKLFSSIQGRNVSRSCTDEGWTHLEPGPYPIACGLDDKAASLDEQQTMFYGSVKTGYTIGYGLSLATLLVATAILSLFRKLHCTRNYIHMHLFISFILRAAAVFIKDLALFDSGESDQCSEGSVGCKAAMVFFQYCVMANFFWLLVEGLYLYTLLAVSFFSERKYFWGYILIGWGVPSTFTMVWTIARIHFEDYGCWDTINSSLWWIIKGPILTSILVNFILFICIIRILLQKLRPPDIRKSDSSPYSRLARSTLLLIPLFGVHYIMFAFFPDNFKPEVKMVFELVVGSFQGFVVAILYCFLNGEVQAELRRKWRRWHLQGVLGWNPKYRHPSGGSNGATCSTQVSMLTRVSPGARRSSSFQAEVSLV", "test": "Activity and selectivity of PAC1 agonists on VPAC1", "settings": "receptor agonist on VPAC1"}, "[3]": {"molecular_target": "T3, VPAC2 (Homo sapiens, UniProt P41587)", "T3 sequence (P41587 24-438)": "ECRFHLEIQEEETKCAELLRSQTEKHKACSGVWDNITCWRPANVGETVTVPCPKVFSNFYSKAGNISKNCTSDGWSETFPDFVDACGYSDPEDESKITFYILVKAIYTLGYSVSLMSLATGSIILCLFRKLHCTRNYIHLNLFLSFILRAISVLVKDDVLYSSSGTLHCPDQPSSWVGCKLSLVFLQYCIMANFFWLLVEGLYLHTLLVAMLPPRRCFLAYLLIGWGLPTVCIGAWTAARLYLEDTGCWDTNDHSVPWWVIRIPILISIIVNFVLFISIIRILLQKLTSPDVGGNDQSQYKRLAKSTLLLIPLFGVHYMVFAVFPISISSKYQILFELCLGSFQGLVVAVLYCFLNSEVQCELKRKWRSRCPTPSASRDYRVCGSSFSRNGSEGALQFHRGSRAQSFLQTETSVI", "test": "Activity and selectivity of PAC1 agonists on VPAC2", "settings": "receptor agonist on VPAC2"}},
  "data": [
    {"substance": "Maxadilan: 65 amino acid peptide originally isolated from the sand-fly; PAC1-selective agonist", "values": [
      {"measurement": "agonist activity and selectivity", "setting": "[1]; PAC1 versus VPAC1 and VPAC2", "result": "highly-selective for PAC1 versus VPAC1 and VPAC2"},
      {"measurement": "EC50", "setting": "[1]; receptor agonist on PAC1", "result": 0.06, "unit": "nM"},
      {"measurement": "EC50", "setting": "[2]", "result": "> 1000", "unit": "nM"},
      {"measurement": "EC50", "setting": "[3]", "result": "> 1000", "unit": "nM"}
    ]}
  ]
}
